US20230002480A1

Legend:
Assay in all cases: cell-based or functional assay
[1] = target: HIV-1 Env of pseudovirus 0260.v5.c36 (HIV-1)
[2] = target: HIV-1 Env of pseudovirus X1632_S2_B10 (HIV-1)
[3] = target: HIV-1 Env of pseudovirus C3347.c11 (HIV-1)
[4] = target: HIV-1 Env of pseudovirus 3365.v2.c2 (HIV-1)
[5] = target: HIV-1 Env of pseudovirus 6480.v4.c25 (HIV-1)
[6] = target: HIV-1 Env of pseudovirus BJOX028000.10.3 (HIV-1)
[7] = target: HIV-1 Env of pseudovirus 231965.c01 (HIV-1)
[8] = target: HIV-1 Env of pseudovirus 6540.v4.c1 (HIV-1)
[9] = target: HIV-1 Env of pseudovirus 6952.v1.c20 (HIV-1)
[10] = target: HIV-1 Env of pseudovirus 3817.v2.c59 (HIV-1)
[11] = target: HIV-1 Env of pseudovirus CNE5 (HIV-1)
[12] = target: HIV-1 Env of pseudovirus X2088_c9 (HIV-1)
[13] = target: HIV-1 Env of pseudovirus 235-47 (HIV-1)
[14] = target: HIV-1 Env of pseudovirus X2131_C1_B5 (HIV-1)
[15] = target: HIV-1 Env of pseudovirus 6041.v3.c23 (HIV-1)
[16] = target: HIV-1 Env of pseudovirus BJOX025000.01.1 (HIV-1)
[17] = target: HIV-1 Env of pseudovirus A07412M1.vrc12 (HIV-1)
[18] = target: HIV-1 Env of pseudovirus X1254_c3 (HIV-1)
[19] = target: HIV-1 Env of pseudovirus Ce0393_C3 (HIV-1)
[20] = target: HIV-1 Env of pseudovirus 62357_14_D3_4589 (HIV-1)
[21] = target: HIV-1 Env of pseudovirus ZM214M.PL15 (HIV-1)
[22] = target: HIV-1 Env of pseudovirus Du172.17 (HIV-1)
[23] = target: HIV-1 Env of pseudovirus Ce704809221_1B3 (HIV-1)
[24] = target: HIV-1 Env of pseudovirus ZM197M.PB7 (HIV-1)
[25] = target: HIV-1 Env of pseudovirus SC422661.8 (HIV-1)
[26] = target: HIV-1 Env of pseudovirus CNE58 (HIV-1)
[27] = target: HIV-1 Env of pseudovirus ZM109F.PB4 (HIV-1)
[28] = target: HIV-1 Env of pseudovirus Ce0682_E4 (HIV-1)
[29] = target: HIV-1 Env of pseudovirus HIV-16055-2.3 (HIV-1)
[30] = target: HIV-1 Env of pseudovirus SC05_8C11_2344 (HIV-1)
[31] = target: HIV-1 Env of pseudovirus Ce1176_A3 (HIV-1)
[32] = target: HIV-1 Env of pseudovirus CNE30 (HIV-1)
[33] = target: HIV-1 Env of pseudovirus Ce1086_B2 (HIV-1)
[34] = target: HIV-1 Env of pseudovirus ZM233M.PB6 (HIV-1)
[35] = target: HIV-1 Env of pseudovirus ZM53M.PB12 (HIV-1)
[36] = target: HIV-1 Env of pseudovirus 1054_07_TC4_1499 (HIV-1)
[37] = target: HIV-1 Env of pseudovirus CNE20 (HIV-1)

What does the source list for N49P7.2 (antibody)?
IC50 [1]: 0.644 µg/mL; IC80 [1]: 1.8 µg/mL; MPI [1]: 100; IC50 [2]: > 50 µg/mL; IC80 [2]: > 50 µg/mL; MPI [2]: 22; IC50 [3]: 0.047 µg/mL; IC80 [3]: 0.154 µg/mL; MPI [3]: 100; IC50 [4]: 0.066 µg/mL; IC80 [4]: 0.267 µg/mL; MPI [4]: 100; IC50 [5]: 0.098 µg/mL; IC80 [5]: 0.371 µg/mL; MPI [5]: 100; IC50 [6]: 0.322 µg/mL; IC80 [6]: 1.49 µg/mL; MPI [6]: 100; IC50 [7]: 0.316 µg/mL; IC80 [7]: 1.06 µg/mL; MPI [7]: 100; IC50 [8]: > 50 µg/mL; IC80 [8]: > 50 µg/mL; MPI [8]: 33; IC50 [9]: > 50 µg/mL; IC80 [9]: > 50 µg/mL; MPI [9]: 0; IC50 [10]: 9.83 µg/mL; IC80 [10]: > 50 µg/mL; MPI [10]: 68; IC50 [11]: 0.206 µg/mL; IC80 [11]: 0.893 µg/mL; MPI [11]: 100; IC50 [12]: 0.377 µg/mL; IC80 [12]: 2.03 µg/mL; MPI [12]: 99; IC50 [13]: 0.127 µg/mL; IC80 [13]: 1.03 µg/mL; MPI [13]: 90; IC50 [14]: 0.161 µg/mL; IC80 [14]: 0.671 µg/mL; MPI [14]: 100; IC50 [15]: 0.309 µg/mL; IC80 [15]: 5.11 µg/mL; MPI [15]: 94; IC50 [16]: 0.102 µg/mL; IC80 [16]: 0.831 µg/mL; MPI [16]: 100; IC50 [17]: 0.768 µg/mL; IC80 [17]: 2.32 µg/mL; MPI [17]: 100; IC50 [18]: 27.5 µg/mL; IC80 [18]: > 50 µg/mL; MPI [18]: 53

With VRC07 (antibody) as the substance, how does the neutralization IC50 [1] read?
Its neutralization IC50 is 0.448 µg/mL.

And the neutralization IC80 [1]?
Its neutralization IC80 is 1.62 µg/mL.

And the IC50, titer in TZM.bl cells [2]?
The IC50, titer in TZM.bl cells was 0.023 µg/mL.

And the IC80, titer in TZM.bl cells [2]?
The IC80, titer in TZM.bl cells was 0.107 µg/mL.

What about the IC50, titer in TZM.bl cells [3] of the same substance?
Its IC50, titer in TZM.bl cells is 0.06 µg/mL.

And the IC80, titer in TZM.bl cells [3]?
The IC80, titer in TZM.bl cells was 0.38 µg/mL.

And the neutralization IC50 [4]?
Its neutralization IC50 is 0.038 µg/mL.

And the neutralization IC80 [4]?
Its neutralization IC80 is 0.109 µg/mL.

And the IC50, titer in TZM.bl cells [5]?
The IC50, titer in TZM.bl cells was 0.032 µg/mL.

And the IC80, titer in TZM.bl cells [5]?
Its IC80, titer in TZM.bl cells is 0.134 µg/mL.

What about the neutralization IC50 [19] of the same substance?
The neutralization IC50 was 0.182 µg/mL.

And the neutralization IC80 [19]?
Its neutralization IC80 is 0.634 µg/mL.

And the IC50, titer in TZM.bl cells [6]?
The IC50, titer in TZM.bl cells was 0.011 µg/mL.

What about the IC80, titer in TZM.bl cells [6] of the same substance?
Its IC80, titer in TZM.bl cells is 0.069 µg/mL.

And the neutralization IC50 [20]?
Its neutralization IC50 is 0.075 µg/mL.

And the neutralization IC80 [20]?
Its neutralization IC80 is 0.256 µg/mL.

And the IC50, titer in TZM.bl cells [7]?
The IC50, titer in TZM.bl cells was 0.085 µg/mL.

What about the IC80, titer in TZM.bl cells [7] of the same substance?
The IC80, titer in TZM.bl cells was 0.263 µg/mL.

And the IC50, titer in TZM.bl cells [8]?
The IC50, titer in TZM.bl cells was over 50 µg/mL.

What about the IC80, titer in TZM.bl cells [8] of the same substance?
The IC80, titer in TZM.bl cells was over 50 µg/mL.

What about the IC50, titer in TZM.bl cells [9] of the same substance?
The IC50, titer in TZM.bl cells was 0.064 µg/mL.

And the IC80, titer in TZM.bl cells [9]?
The IC80, titer in TZM.bl cells was 0.181 µg/mL.

What about the neutralization IC50 [21] of the same substance?
The neutralization IC50 was 0.198 µg/mL.

And the neutralization IC80 [21]?
The neutralization IC80 was 1.42 µg/mL.

And the neutralization IC50 [22]?
The neutralization IC50 was 0.796 µg/mL.

What about the neutralization IC80 [22] of the same substance?
Its neutralization IC80 is 3.66 µg/mL.

And the neutralization IC50 [23]?
Its neutralization IC50 is 0.273 µg/mL.

And the neutralization IC80 [23]?
Its neutralization IC80 is 1.14 µg/mL.

And the IC50, titer in TZM.bl cells [10]?
The IC50, titer in TZM.bl cells was 1.9 µg/mL.

And the IC80, titer in TZM.bl cells [10]?
Its IC80, titer in TZM.bl cells is 19.8 µg/mL.

And the neutralization IC50 [24]?
Its neutralization IC50 is 0.307 µg/mL.

And the neutralization IC80 [24]?
Its neutralization IC80 is 1.27 µg/mL.

And the neutralization IC50 [25]?
The neutralization IC50 was 0.054 µg/mL.

What about the neutralization IC80 [25] of the same substance?
Its neutralization IC80 is 0.175 µg/mL.

And the neutralization IC50 [26]?
Its neutralization IC50 is 0.11 µg/mL.

And the neutralization IC80 [26]?
The neutralization IC80 was 0.298 µg/mL.

What about the neutralization IC50 [27] of the same substance?
The neutralization IC50 was 0.112 µg/mL.

What about the neutralization IC80 [27] of the same substance?
The neutralization IC80 was 0.389 µg/mL.

And the neutralization IC50 [28]?
The neutralization IC50 was 0.039 µg/mL.

And the neutralization IC80 [28]?
The neutralization IC80 was 0.239 µg/mL.

And the neutralization IC50 [29]?
The neutralization IC50 was 0.025 µg/mL.

And the neutralization IC80 [29]?
Its neutralization IC80 is 0.135 µg/mL.

And the IC50, titer in TZM.bl cells [11]?
Its IC50, titer in TZM.bl cells is 0.138 µg/mL.

What about the IC80, titer in TZM.bl cells [11] of the same substance?
Its IC80, titer in TZM.bl cells is 0.524 µg/mL.

What about the neutralization IC50 [30] of the same substance?
Its neutralization IC50 is 0.133 µg/mL.

And the neutralization IC80 [30]?
Its neutralization IC80 is 0.401 µg/mL.

And the IC50, titer in TZM.bl cells [12]?
The IC50, titer in TZM.bl cells was over 50 µg/mL.

What about the IC80, titer in TZM.bl cells [12] of the same substance?
The IC80, titer in TZM.bl cells was over 50 µg/mL.

And the neutralization IC50 [31]?
The neutralization IC50 was 0.52 µg/mL.

And the neutralization IC80 [31]?
The neutralization IC80 was 2.6 µg/mL.

What about the IC50, titer in TZM.bl cells [13] of the same substance?
The IC50, titer in TZM.bl cells was 0.024 µg/mL.

What about the IC80, titer in TZM.bl cells [13] of the same substance?
The IC80, titer in TZM.bl cells was 0.075 µg/mL.

And the neutralization IC50 [32]?
The neutralization IC50 was 0.326 µg/mL.

And the neutralization IC80 [32]?
The neutralization IC80 was 1.08 µg/mL.

What about the IC50, titer in TZM.bl cells [14] of the same substance?
The IC50, titer in TZM.bl cells was 0.219 µg/mL.

And the IC80, titer in TZM.bl cells [14]?
Its IC80, titer in TZM.bl cells is 1.03 µg/mL.

And the neutralization IC50 [33]?
The neutralization IC50 was 0.128 µg/mL.

And the neutralization IC80 [33]?
The neutralization IC80 was 0.84 µg/mL.

What about the IC50, titer in TZM.bl cells [15] of the same substance?
The IC50, titer in TZM.bl cells was 0.018 µg/mL.

What about the IC80, titer in TZM.bl cells [15] of the same substance?
The IC80, titer in TZM.bl cells was 0.058 µg/mL.

What about the neutralization IC50 [34] of the same substance?
Its neutralization IC50 is 0.152 µg/mL.

And the neutralization IC80 [34]?
The neutralization IC80 was 0.625 µg/mL.

And the IC50, titer in TZM.bl cells [16]?
The IC50, titer in TZM.bl cells was 0.279 µg/mL.

What about the IC80, titer in TZM.bl cells [16] of the same substance?
The IC80, titer in TZM.bl cells was 2.29 µg/mL.

What about the IC50, titer in TZM.bl cells [17] of the same substance?
The IC50, titer in TZM.bl cells was 0.11 µg/mL.

What about the IC80, titer in TZM.bl cells [17] of the same substance?
The IC80, titer in TZM.bl cells was 0.353 µg/mL.

What about the neutralization IC50 [35] of the same substance?
Its neutralization IC50 is 0.275 µg/mL.

What about the neutralization IC80 [35] of the same substance?
Its neutralization IC80 is 1.29 µg/mL.

What about the neutralization IC50 [36] of the same substance?
Its neutralization IC50 is 0.239 µg/mL.

What about the neutralization IC80 [36] of the same substance?
The neutralization IC80 was 1.46 µg/mL.

What about the neutralization IC50 [37] of the same substance?
Its neutralization IC50 is 0.06 µg/mL.

And the neutralization IC80 [37]?
The neutralization IC80 was 0.129 µg/mL.

And the IC50, titer in TZM.bl cells [18]?
Its IC50, titer in TZM.bl cells is 0.041 µg/mL.

What about the IC80, titer in TZM.bl cells [18] of the same substance?
The IC80, titer in TZM.bl cells was 0.2 µg/mL.
